These are literature values, as cited in publication PMC10449480.

Usually Kd stands for the equilibrium constant for the complex coming apart.

The target in the data set is tryptophanyl-tRNA synthetase (Geobacillus stearothermophilus) (UniProt P00953).

Consider “tryptophanyl-tRNA synthetase (from UniProt P00953)”, for which the Kd is 5 nM.
